One assay has as its system TLR2-HeLa cells. As to the kind of experiment: MAP kinase phosphorylation and IκBα degradation in TLR2-HeLa cells (Western blotting). The assay is classed as cell-based, human. The method, then:
FIG. 8 is a series of protein gels and corresponding Western blotting graphs showing that SAA-induced TLR2-dependent signaling in transfected cells. Serum-starved TLR2-HeLa and mock-transfected HeLa cells were stimulated with SAA (1 μM) or Pam3CSK4 (1 μg/ml) for the indicated time. The phosphorylation level of ERK1/2 (A), p38 (B) and JNK (C) was detected by Western blotting using antibodies recognizing the phosphorylated forms of the MAP kinases (blots). (D) The level of cytoplasmic IκB ? was detected by Western blotting using an anti-IκB ? antibody and the β-actin levels in the corresponding samples were shown as loading controls. […] A representative set of data, from 3 repeating experiments, is presented.

The subject of assay [1] is Human peripheral blood monocytes (PBMC). As to the kind of experiment: SAA-induced G-CSF secretion in human PBMC (ELISA). It is filed as cell-based. The conditions noted are these: SAA 1 μM. As for the experimental part: SAA induces G-CSF expression in monocytes and macrophages: To determine whether SAA plays a role in neutrophilia, the ability of SAA to stimulate G-CSF expression was investigated. Human peripheral blood monocytes (PBMC) were incubated with SAA, and the concentration of secreted G-CSF in the culture medium was determined at various time points after stimulation. The concentration of SAA used in this experiment (1 μM) was well within its physiological range (0.08 μM to 80 μM). […] Since subsequent studies used mice for measurement of G-CSF secretion and neutrophilia, SAA-induced G-CSF expression in mouse bone marrow derived macrophages (BMDM) was determined, of which 98% were F4/80^+ CD14^+ based on flow cytometry analysis. […] The basal level of G-CSF remained stable at approximately 42 pg/ml/10^6 cells over the entire course of incubation.
Cell preparation and culture: Human peripheral blood monocytes were prepared from fresh, heparinized venous blood by Ficoll-Hypaque density-gradient centrifugation. […]
Measurement of G-CSF expression: To measure the secreted G-CSF from human monocytes and mouse macrophages in vitro, cells were placed in serum-free DMEM medium and stimulated with the indicated ligands. […] Real-time quantitative PCR was performed on a ABI PRISM 7000 Sequence Detection System (Applied Biosystems) as described previously (He et al., 2006). […]

From patent US7629135B2, “Toll-like receptor agonists and antagonists and methods of use thereof” (The Board of Trustees of the University of Illinois, priority 2006, dated 2009) come the findings set out here.

B1: SAA: Recombinant human SAA purchased from PeproTech; major acute-phase protein of 104 amino acids (protein, UniProt P0DJI8 19-122, looked up)
Serum amyloid A-1 protein: RSFFSFLGEAFDGARDMWRAYSDMREANYIGSDKYFHARGNYDAAKRGPGGAWAAEVITDARENIQRFFGHGAEDSLADQAANEWGRSGKDPNHFRPAGLPEKY
Consider B1, for which, in the assay with TLR2-HeLa cells (TLR2-HeLa cells, SAA 1 μM), the IκBα degradation entry is reported as “IκBα degradation”; the “phosphorylation of MAP kinases ERK1/2, p38 and JNK” value is reported as “robust phosphorylation”. Also, in the assay with TLR2-HeLa cells (mock-transfected HeLa cells, 10 min, SAA 1 μM, Pam3CSK4 1 μg/ml), the “ERK1/2 phosphorylation in mock-transfected cells” value is listed as “induced ERK1/2 phosphorylation”. Moreover, the “IκBα degradation in mock-transfected cells” value with TLR2-HeLa cells (mock-transfected HeLa cells, SAA stimulation) is “No IκBα degradation”. In addition, the “secreted G-CSF” value in assay [1] (after 4 h of stimulation) is 2,546 pg/ml/10^6 cells. In addition, in assay [1] (end of 24 h incubation), the “secreted G-CSF” value was 7,340 pg/ml/10^6 cells.
